Test results published in paper PMC4568394, “Differentially expressed seed aging responsive heat shock protein OsHSP18.2 implicates in seed vigor, longevity and improves germination and seedling establishment under abiotic stress” (Frontiers in Plant Science, 2015).

Target: the molecule itself
Assay: SEC; Superose 6 column; purified OsHSP18.2 run with molecular weight markers, Ve/Vo against log molecular weight; homooligomer

B1: OsHSP18.2, a class II cytosolic small heat shock protein of rice (6X His tagged recombinant) (natural protein, Oryza sativa indica var. PB-1, UniProt Q5VRY1 1-166, looked up)
chain: MESAMFGLETPLMTALQHLLDIPDGEGGAAGKQGATGGPTRAYVRDARAMAATPADVKDLPGAYAFVVDMPGLKSSDIKVQVEEERLLVISGERRRGGGEEEKEESCKYLRMERRMGKFMRKFVLPDNADVDKISAVCQDGVLTVTVEKLPPPEPKKPKTIEVKVA
notes: OsHSP18.2, class II heat shock protein, Oryza sativa indica var; complete ORF / CDS, 166 aa, predicted 18.2 kDa; the indica PB-1 clone may differ from it; pET23b usually adds a C-terminal His6 tag; copies: 12
For B1, the “stoichiometry N” value was roughly 12 subunits.
